{
  "source": "patent US20190100563A1",
  "about": "(UNIVERSITY COURT OF THE UNIVERSITY OF EDINBURGH, published 2019)",
  "molecules": {"B1": {"name": "Human complement factor H purified from plasma (other)", "chain": "EDCNELPPRRNTEILTGSWSDQTYPEGTQAIYKCRPGYRSLGNVIMVCRKGEWVALNPLRKCQKRPCGHPGDTPFGTFTLTGGNVFEYGVKAVYTCNEGYQLLGEINYRECDTDGWTNDIPICEVVKCLPVTAPENGKIVSSAMEPDREYHFGQAVRFVCNSGYKIEGDEEMHCSDDGFWSKEKPKCVEISCKSPDVINGSPISQKIIYKENERFQYKCNMGYEYSERGDAVCTESGWRPLPSCEEKSCDNPYIPNGDYSPLRIKHRTGDEITYQCRNGFYPATRGNTAKCTSTGWIPAPRCTLKPCDYPDIKHGGLYHENMRRPYFPVAVGKYYSYYCDEHFETPSGSYWDHIHCTQDGWSPAVPCLRKCYFPYLENGYNQNYGRKFVQGKSIDVACHPGYALPKAQTTVTCMENGWSPTPRCIRVKTCSKSSIDIENGFISESQYTYALKEKAKYQCKLGYVTADGETSGSITCGKDGWSAQPTCIKSCDIPVFMNARTKNDFTWFKLNDTLDYECHDGYESNTGSTTGSIVCGYNGWSDLPICYERECELPKIDVHLVPDRKKDQYKVGEVLKFSCKPGFTIVGPNSVQCYHFGLSPDLPICKEQVQSCGPPPELLNGNVKEKTKEEYGHSEVVEYYCNPRFLMKGPNKIQCVDGEWTTLPVCIVEESTCGDIPELEHGWAQLSSPPYYYGDSVEFNCSESFTMIGHRSITCIHGVWTQLPQCVAIDKLKKCKSSNLIILEEHLKNKKEFDHNSNIRYRCRGKEGWIHTVCINGRWDPEVNCSMAQIQLCPPPPQIPNSHNMTTTLNYRDGEKVSVLCQENYLIQEGEEITCKDGRWQSIPLCVEKIPCSQPPQIEHGTINSSRSSQESYAHGTKLSYTCEGGFRISEENETTCYMGKWSSPPQCEGLPCKSPPEISHGVVAHMSDSYQYGEEVTYKCFEGFGIDGPAIAKCLGEKWSHPPSCIKTDCLSLPSFENAIPMGEKKDVYKAGEQVTYTCATYYKMDGASNVTCINSRWTGRPTCRDTSCVNPPTVQNAYIVSRQMSKYPSGERVRYQCRSPYEMFGDEEVMCLNGNWTEPPQCKDSTGKCGPPPPIDNGDITSFPLSVYAPASSVEYQCQNLYQLEGNKRITCRNGQWSEPPKCLHPCVISREIMENYNIALRWTAKQKLYSRTGESVEFVCKRGYRLSSRSHTLRTTCWDGKLEYPTCAKR", "notes": "also called Plasma CFH; plasma-purified CFH"}},
  "key": {"[1]": {"biological_target": "Human complement factor H purified from plasma (human) (UniProt P08603)", "assay": "SPR"}, "[2]": {"biological_target": "Human complement factor H purified from plasma (human) (UniProt P08603)", "assay": "SPR, TIGR4 fragment on NTA chip, CFH as analyte"}, "[3]": {"biological_target": "Human complement factor H purified from plasma (human) (UniProt P08603)", "assay": "SPR, immobilised TIGR4 fragment, FH as analyte"}, "[4]": {"biological_target": "Human C3d (plasma-purified) (human) (UniProt P01024)", "sequence (P01024 1002-1303 limits assumed)": "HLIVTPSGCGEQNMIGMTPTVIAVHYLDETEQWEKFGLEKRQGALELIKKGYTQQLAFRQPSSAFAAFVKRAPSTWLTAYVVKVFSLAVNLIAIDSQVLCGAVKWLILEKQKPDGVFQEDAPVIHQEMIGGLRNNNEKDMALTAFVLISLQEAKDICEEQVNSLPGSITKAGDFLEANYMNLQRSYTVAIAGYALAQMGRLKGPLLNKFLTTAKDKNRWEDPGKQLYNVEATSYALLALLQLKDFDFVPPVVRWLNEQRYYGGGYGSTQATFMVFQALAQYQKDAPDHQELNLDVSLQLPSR", "assay": "SPR (Biacore), coupled C3d"}, "[5]": {"biological_target": "Human C3b (plasma-purified) (human) (UniProt P01024)", "sequence (P01024 23-667 limits assumed, chain 1 of 2)": "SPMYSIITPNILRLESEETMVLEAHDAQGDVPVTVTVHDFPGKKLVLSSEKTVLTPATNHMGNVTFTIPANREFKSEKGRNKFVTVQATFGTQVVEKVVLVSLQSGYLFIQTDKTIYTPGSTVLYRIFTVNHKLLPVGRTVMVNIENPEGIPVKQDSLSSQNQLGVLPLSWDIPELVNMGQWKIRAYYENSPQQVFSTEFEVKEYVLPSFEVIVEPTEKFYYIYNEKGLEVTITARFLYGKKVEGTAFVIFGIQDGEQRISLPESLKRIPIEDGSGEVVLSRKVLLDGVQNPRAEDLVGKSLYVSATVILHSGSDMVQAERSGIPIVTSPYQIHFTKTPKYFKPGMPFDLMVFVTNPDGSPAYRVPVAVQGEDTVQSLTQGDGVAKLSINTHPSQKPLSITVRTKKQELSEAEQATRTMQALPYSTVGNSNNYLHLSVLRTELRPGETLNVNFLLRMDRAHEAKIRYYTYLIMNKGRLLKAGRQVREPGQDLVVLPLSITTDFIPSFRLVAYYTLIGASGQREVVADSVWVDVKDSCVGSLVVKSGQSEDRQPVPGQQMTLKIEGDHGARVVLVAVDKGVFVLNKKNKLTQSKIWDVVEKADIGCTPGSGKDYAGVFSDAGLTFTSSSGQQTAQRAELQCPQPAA", "sequence (P01024 749-1663 limits assumed, chain 2 of 2)": "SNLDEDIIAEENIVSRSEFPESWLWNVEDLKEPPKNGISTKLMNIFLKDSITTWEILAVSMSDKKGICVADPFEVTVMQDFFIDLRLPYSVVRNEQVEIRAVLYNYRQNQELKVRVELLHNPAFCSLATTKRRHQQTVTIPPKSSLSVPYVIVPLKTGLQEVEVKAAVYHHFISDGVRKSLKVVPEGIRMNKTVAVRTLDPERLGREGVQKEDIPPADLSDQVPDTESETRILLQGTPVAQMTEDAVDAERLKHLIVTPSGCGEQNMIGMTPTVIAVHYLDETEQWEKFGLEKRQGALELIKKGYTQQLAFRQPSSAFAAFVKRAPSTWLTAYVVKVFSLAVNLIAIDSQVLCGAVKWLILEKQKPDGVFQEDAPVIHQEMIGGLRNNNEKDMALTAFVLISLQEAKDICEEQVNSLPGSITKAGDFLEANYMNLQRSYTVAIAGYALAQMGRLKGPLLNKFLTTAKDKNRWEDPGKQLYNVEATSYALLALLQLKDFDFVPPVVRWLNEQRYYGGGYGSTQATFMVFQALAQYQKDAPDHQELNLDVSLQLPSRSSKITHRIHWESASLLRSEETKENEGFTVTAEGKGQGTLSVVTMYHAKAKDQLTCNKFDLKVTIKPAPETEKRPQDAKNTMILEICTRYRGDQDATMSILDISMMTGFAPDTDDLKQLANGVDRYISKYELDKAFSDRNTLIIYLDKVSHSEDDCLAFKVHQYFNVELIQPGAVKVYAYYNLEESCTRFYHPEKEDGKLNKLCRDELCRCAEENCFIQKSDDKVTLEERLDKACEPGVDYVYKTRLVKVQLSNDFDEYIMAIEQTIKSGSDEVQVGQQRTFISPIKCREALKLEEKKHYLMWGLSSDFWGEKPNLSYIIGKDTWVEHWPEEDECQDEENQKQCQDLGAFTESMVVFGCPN", "assay": "SPR (Biacore), coupled C3b"}, "[6]": {"biological_target": "B1", "assay": "SPR, immobilised PspC fragment, CFH flowed over"}, "[7]": {"biological_target": "T1, Human C3b (plasma-purified) (human, UniProt P01024 23-667; P01024 749-1663)", "T1 sequence (P01024 23-667 limits assumed, chain 1 of 2)": "as the sequence (P01024 23-667 limits assumed, chain 1 of 2) above", "T1 sequence (P01024 749-1663 limits assumed, chain 2 of 2)": "as the sequence (P01024 749-1663 limits assumed, chain 2 of 2) above", "assay": "SPR (Biacore), coupled C3b, TIGR4 experiment"}, "[8]": {"biological_target": "T1, Human C3b (plasma-purified)", "assay": "SPR, amine-coupled C3b on C1 chip, equilibrium 1:1 fit", "protocol": "The sensor chip was regenerated by 2×30 s injections of 1 M NaCl. Data were analysed using the Biacore evaluation software and equilibrium affinity parameters were calculated using a 1:1 binding affinity model.\nCommercially sources plasma-purified human C3b, C3c and C3d were immobilized using standard amine coupling to different channels of the same C1 SPR chip (Biacore)."}, "[9]": {"biological_target": "T2, Human C3d (plasma-purified) (human, UniProt P01024 1002-1303)", "T2 construct": "domain: TED; also called TED of C3b", "T2 sequence (P01024 1002-1303 limits assumed)": "as the sequence (P01024 1002-1303 limits assumed) above", "assay": "SPR, immobilised C3d"}, "[10]": {"biological_target": "T1, Human C3b (plasma-purified)", "assay": "SPR, immobilised C3b"}, "[11]": {"biological_target": "T1, Human C3b (plasma-purified)", "assay": "SPR, amine-coupled C3b on C1 chip"}, "[12]": {"biological_target": "B1", "assay": "SPR, TIGR4 fragment on NTA chip, CFH as analyte"}, "[13]": {"biological_target": "B1", "assay": "SPR, His-SUMO-Cys-PspCN as ligand, plasma-purified CFH as analyte, kinetic analysis"}, "[14]": {"biological_target": "B1", "assay": "SPR, His-SUMO-PspCN-Cys as ligand, plasma-purified CFH as analyte, kinetic analysis"}},
  "data": [
    {"molecule": "PspCN (TIGR4 68-148), fragment of PspC (CbpA) of S. pneumoniae strain TIGR4", "values": [
      {"measurement": "Kd", "setting": "[1]", "result": 0.001, "unit": "pM"},
      {"measurement": "Kd", "setting": "[2]", "result": "< 0.018", "unit": "nM"},
      {"measurement": "Kd", "setting": "[3]", "result": "< 0.018", "unit": "nM"}
    ]},
    {"molecule": "CFH:TIGR4 (37-179) complex", "values": [
      {"measurement": "Kd", "setting": "[4]", "result": 1200, "unit": "nM"},
      {"measurement": "Kd", "setting": "[5]", "result": 280, "unit": "nM"}
    ]},
    {"molecule": "PspC (52-140) (other) MAKTEHRKAAKQVVDEYIEKMLREIQLDRRKHTQNVALNIKLSAIKTKYLRELNVLEEKSKDELPSEIKAKLDAAFEKFKKDTLKPGEK", "values": [
      {"measurement": "binding result", "setting": "[6]", "result": "binds"}
    ]},
    {"molecule": "B1", "values": [
      {"measurement": "Kd", "setting": "[7]", "result": 550, "unit": "nM"},
      {"measurement": "Kd", "setting": "[8]", "result": 490, "unit": "nM"}
    ]},
    {"molecule": "Plasma CFH:PspCN complex (other, also called PspCN:CFH) chain 1: EDCNELPPRRNTEILTGSWSDQTYPEGTQAIYKCRPGYRSLGNVIMVCRKGEWVALNPLRKCQKRPCGHPGDTPFGTFTLTGGNVFEYGVKAVYTCNEGYQLLGEINYRECDTDGWTNDIPICEVVKCLPVTAPENGKIVSSAMEPDREYHFGQAVRFVCNSGYKIEGDEEMHCSDDGFWSKEKPKCVEISCKSPDVINGSPISQKIIYKENERFQYKCNMGYEYSERGDAVCTESGWRPLPSCEEKSCDNPYIPNGDYSPLRIKHRTGDEITYQCRNGFYPATRGNTAKCTSTGWIPAPRCTLKPCDYPDIKHGGLYHENMRRPYFPVAVGKYYSYYCDEHFETPSGSYWDHIHCTQDGWSPAVPCLRKCYFPYLENGYNQNYGRKFVQGKSIDVACHPGYALPKAQTTVTCMENGWSPTPRCIRVKTCSKSSIDIENGFISESQYTYALKEKAKYQCKLGYVTADGETSGSITCGKDGWSAQPTCIKSCDIPVFMNARTKNDFTWFKLNDTLDYECHDGYESNTGSTTGSIVCGYNGWSDLPICYERECELPKIDVHLVPDRKKDQYKVGEVLKFSCKPGFTIVGPNSVQCYHFGLSPDLPICKEQVQSCGPPPELLNGNVKEKTKEEYGHSEVVEYYCNPRFLMKGPNKIQCVDGEWTTLPVCIVEESTCGDIPELEHGWAQLSSPPYYYGDSVEFNCSESFTMIGHRSITCIHGVWTQLPQCVAIDKLKKCKSSNLIILEEHLKNKKEFDHNSNIRYRCRGKEGWIHTVCINGRWDPEVNCSMAQIQLCPPPPQIPNSHNMTTTLNYRDGEKVSVLCQENYLIQEGEEITCKDGRWQSIPLCVEKIPCSQPPQIEHGTINSSRSSQESYAHGTKLSYTCEGGFRISEENETTCYMGKWSSPPQCEGLPCKSPPEISHGVVAHMSDSYQYGEEVTYKCFEGFGIDGPAIAKCLGEKWSHPPSCIKTDCLSLPSFENAIPMGEKKDVYKAGEQVTYTCATYYKMDGASNVTCINSRWTGRPTCRDTSCVNPPTVQNAYIVSRQMSKYPSGERVRYQCRSPYEMFGDEEVMCLNGNWTEPPQCKDSTGKCGPPPPIDNGDITSFPLSVYAPASSVEYQCQNLYQLEGNKRITCRNGQWSEPPKCLHPCVISREIMENYNIALRWTAKQKLYSRTGESVEFVCKRGYRLSSRSHTLRTTCWDGKLEYPTCAKR chain 2: ATENEGSTQAATSSNMAKTEHRKAAKQVVDEYIEKMLREIQLDRRKHTQNVALNIKLSAIKTKYLRELNVLEEKSKDELPSEIKAKLDAAFEKFKKDTLKPGEK", "values": [
      {"measurement": "fold better binding than intact CFH", "setting": "[9]", "result": "> 50", "unit": "fold"},
      {"measurement": "fold difference in affinity against CFH", "setting": "[10]", "result": 4, "unit": "fold"},
      {"measurement": "Kd", "setting": "[8]", "result": 160, "unit": "nM"},
      {"measurement": "fold better binding than CFH alone", "setting": "[11]", "result": 3, "unit": "fold"}
    ]},
    {"molecule": "PspCN (TIGR4 37-179), fragment of PspC (CbpA) of S. pneumoniae strain TIGR4 (other, not shown: N-terminal hexaHis-SUMO tag used for capture on the NTA chip) ATENEGATQVPTSSNRANESQAEQGEQPKKLDSERDKARKEVEEYVKKIVGESYAKSTKKRHTITVALVNELNNIKNEYLNKIVESTSESQLQILMMESRSKVDEAVSKFEKDSSSSSSSDSSTKPEASDTAKPNKPTEPGEK", "values": [
      {"measurement": "Kd", "setting": "[12]", "result": "< 0.01", "unit": "nM"}
    ]},
    {"molecule": "His-SUMO-Cys-PspCN (other, also called Cys-PspCN (as SPR ligand); not shown: N-terminal His-SUMO tag) CGSGSGSGSGGATENEGSTQAATSSNMAKTEHRKAAKQVVDEYIEKMLREIQLDRRKHTQNVALNIKLSAIKTKYLRELNVLEEKSKDELPSEIKAKLDAAFEKFKKDTLKPGEK", "values": [
      {"measurement": "Kd", "setting": "[13]", "result": "~0.0001", "unit": "nM"}
    ]},
    {"molecule": "His-SUMO-PspCN-Cys (other, also called PspCN-Cys (as SPR ligand); not shown: N-terminal His-SUMO tag) ATENEGSTQAATSSNMAKTEHRKAAKQVVDEYIEKMLREIQLDRRKHTQNVALNIKLSAIKTKYLRELNVLEEKSKDELPSEIKAKLDAAFEKFKKDTLKPGEKGSGSGSGSGGC", "values": [
      {"measurement": "Kd", "setting": "[14]", "result": "~0.0001", "unit": "nM"}
    ]}
  ]
}
